Test results reported in US20170015738A1 (H LUNDBECK A S, published 2017).
One block for each binder: values may come before it.

Legend:
[1] = target: T1, tau antigens from human AD brain, S1(p) fraction (human, UniProt P10636 2-758, phosphorylated; sites not listed for this fraction); assay: fluid phase MSD ELISA: inhibition of tau antigen capture
T1 construct: Brain-derived; isoform mix; also called AD-S1(p); AD s1(p)
Procedure: B: The samples were incubated on MSD plates coated with AD-P3 (1 μg/ml) for 2 hours followed by wash and detection of captured Tau antigens using sulfo tagged anti-total TauG antibodies.

[2] = target: T2, pathological hyperphosphorylated tau from human Alzheimer's disease brain, sarkosyl-insoluble P3 fraction (human, UniProt P10636 2-758, hyperphosphorylated; phosphoserine at 396 (other sites not listed)); assay: MSD ELISA on immobilised P3 tau; ratio of binding to AD over healthy control at saturation
T2 construct: Brain-derived mixture of tau isoforms (bands at 54, 64, 69 and 74 kDa); also called AD-P3; AD P3
T2 sequence (P10636 other isoform, or with tags, fused parts or gaps limits assumed): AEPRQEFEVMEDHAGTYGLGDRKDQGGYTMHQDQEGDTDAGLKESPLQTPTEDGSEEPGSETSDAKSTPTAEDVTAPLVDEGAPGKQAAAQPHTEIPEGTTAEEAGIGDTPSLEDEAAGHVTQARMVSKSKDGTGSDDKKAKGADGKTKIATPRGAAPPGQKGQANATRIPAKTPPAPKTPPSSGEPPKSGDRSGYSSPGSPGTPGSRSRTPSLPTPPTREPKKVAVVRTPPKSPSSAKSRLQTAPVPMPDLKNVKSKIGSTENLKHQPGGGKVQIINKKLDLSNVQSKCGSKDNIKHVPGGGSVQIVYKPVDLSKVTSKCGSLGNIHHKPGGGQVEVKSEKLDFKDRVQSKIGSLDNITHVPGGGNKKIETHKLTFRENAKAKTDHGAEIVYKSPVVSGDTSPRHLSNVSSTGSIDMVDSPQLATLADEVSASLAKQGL

T1 sequence (P10636 other isoform, or with tags, fused parts or gaps limits assumed): as above

IC50 [1]: 11 nM
B1: Antibody C10-2 (murine) (antibody, mouse IgG1, kappa, V domains shown)
VH: QVQLQQSDAELVKPGASVKISCKASGYTFTDRTIHWVKQRPEQGLEWIGYIYPGDGSTKYNENFKGKATLTADKSSSTAYMQLNSLTSEDSAVYFCARRGAMDYWGQGTSVTVSS
VL: DVQMIQSPSSLSASLGDIVTMTCQASQGTSINLNWFQQKPGKAPKLLIYGASNLEDGVPSRFSGSRYGTDFTLTISSLEDEDMATYFCLQHTYLPFTFGSGTKLEIKR
notes: Mouse monoclonal from hybridoma; also called mC10-2; mouse C10-2

AD/ctrl [2]: 3 fold
B2: IPN002 (antibody, V domains shown)
VH: EVHLVESGGALVKPGGSLKLSCAASGFSFSKYGMSWVRQTPDKRLEWVATISSSGSRTYYPDSVKGQFTISRDNAKNTLYLQMSSLKSEDTAMYYCSISWDGAMDYWGQGTSVTVSS
VL: DVLMTQTPLSLPVSLGDQASISCKSSQSIVHSNGNTYLEWYLQKPGQSPKLLVYKVSNRFSGVPDRFSGSGSGTDFTLKISRVEAEDLGTYYCFQGSLVPWAFGGGTKLEIK

IC50 [1]: 503 nM
B3: Antibody D1.2 (antibody, mouse IgG2b, kappa, V domains shown)
VH: QVQLQQSGAELVRPGASVTLSCKASGNTFTDYEIHWVKQTPVHGLEWIGAIDPETGNTAYNQKFKGKARLTADKSSSTAYMELRSLTSEDSAVYYCTRSRGFDYWGQGTTLTVSS
VL: DVMMTQTPLSLPVSLGDQASISCRSSQSLVHSNGNTYLHWHLQKPGQSPKFLIYKVSNRFSGVPDRFSGSGSGTDFTLKISRVEAEDLGVYFCSQSTHVPFTFGSGTKLEIKR
notes: Mouse monoclonal; also called mD1.2; mouse D1.2
